Assay results taken from patent US20190322730A1 (NGM BIOPHARMACEUTICALS, published 2019).

What was measured:
[1] = target: T1, human complement component C3 (human, UniProt P01024 23-667; P01024 672-1663); test: cell-based or functional assay
[2] = target: T2, cynomolgus monkey complement component C3 (cynomolgus monkey, UniProt P01024 24-1663 (human entry)); test: cell-based or functional assay
[3] = target: T1, human complement component C3; test: SPR (Biacore), antibody captured by anti-Fc, C3 injected 0.62-40 nM, 37 C
Method: (§1) The binding affinities of exemplary anti-C3 antibodies to human C3 and cyno C3 were measured using a Biacore system (GE Healthcare LifeSciences). Briefly, anti-Fc antibody (Sigma-Aldrich) was immobilized on all four flow cells of a CM5 chip using amine coupling reagents (GE Healthcare LifeSciences). Antibodies were captured on flow cells 2, 3, and 4 using flow cell 1 as a reference. Concentrations ranging from 0.62-40 nM of human C3 or cyno C3 were injected at a flow rate of 50 μL/min at 37° C. Kinetic data were collected over time and fit using the simultaneous global fit equation to yield affinity constants (KD values) for each antibody.

[4] = target: T2, cynomolgus monkey complement component …; test: as above
Method: as §1

[5] = target: T1, human complement component C3; test: SPR (Biacore), 37 C
Method: as §1

[6] = target: T2, cynomolgus monkey complement component …; test: SPR (Biacore), 37 C
Method: as §1

[7] = target: T1, human complement component C3; test: binding screen of Example 5; method and unit not stated
C3a [8] = target: T3, C3a (human, UniProt P01024 672-748); test: as above
C3d [9] = target: T4, C3d (UniProt P01024 1002-1303, limits assumed); test: as above
T4 construct: domain: C3d

Factor Bb [10] = target: T5, Factor Bb (UniProt P00751 260-764); test: as above
T5 construct: domain: Factor Bb

C3a [11] = target: T3, C3a; test: binding screen of Example 5, relative to control mIgG2
C3d [12] = target: T4, C3d; test: as above
Factor Bb [13] = target: T5, Factor Bb; test: as above
[14] = target: T1, human complement component C3; test: cell-based or functional assay; remark: listed apart in the source
[15] = target: T1, human complement component C3; test: SPR (Biacore)
[16] = target: T1, human complement component C3; test: cell-based or functional assay; remark: listed apart in the source
[17] = target: T2, cynomolgus monkey complement component …; test: cell-based or functional assay; remark: listed apart in the source
[18] = target: T1, human complement component C3; test: SPR (Biacore); remark: listed apart in the source
Method: as §1

[19] = target: T1, human complement component C3; test: SPR (Biacore), antibody captured by anti-Fc, C3 injected, 37 C
Method: as §1
(§2) A Biacore system was used to assess the binding affinities of the different molecules to human C3. […] Human C3 (concentration range 12-100 nM) was injected at a flow rate of 50 μL/min.

[20] = target: T1, human complement component C3; test: SPR (Biacore), antibody captured by anti-Fc, C3 injected, 25 C; 25° C.
Method: as §1, §2

[21] = target: T1, human complement component C3; test: cell-based or functional assay; remark: listed apart in the source
[22] = target: T1, human complement component C3; test: SPR (Biacore); Intact antibody
[23] = target: T1, human complement component C3; test: cell-based or functional assay; remark: listed apart in the source
C3b = C3b (human, UniProt P01024 23-667; P01024 749-1663); test: binding screen of Example 5; method and unit not stated

T3 sequence (P01024 672-748 limits assumed): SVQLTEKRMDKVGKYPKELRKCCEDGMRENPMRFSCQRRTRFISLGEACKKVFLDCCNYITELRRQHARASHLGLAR
T2 sequence (P01024 other isoform, or with tags, fused parts or gaps): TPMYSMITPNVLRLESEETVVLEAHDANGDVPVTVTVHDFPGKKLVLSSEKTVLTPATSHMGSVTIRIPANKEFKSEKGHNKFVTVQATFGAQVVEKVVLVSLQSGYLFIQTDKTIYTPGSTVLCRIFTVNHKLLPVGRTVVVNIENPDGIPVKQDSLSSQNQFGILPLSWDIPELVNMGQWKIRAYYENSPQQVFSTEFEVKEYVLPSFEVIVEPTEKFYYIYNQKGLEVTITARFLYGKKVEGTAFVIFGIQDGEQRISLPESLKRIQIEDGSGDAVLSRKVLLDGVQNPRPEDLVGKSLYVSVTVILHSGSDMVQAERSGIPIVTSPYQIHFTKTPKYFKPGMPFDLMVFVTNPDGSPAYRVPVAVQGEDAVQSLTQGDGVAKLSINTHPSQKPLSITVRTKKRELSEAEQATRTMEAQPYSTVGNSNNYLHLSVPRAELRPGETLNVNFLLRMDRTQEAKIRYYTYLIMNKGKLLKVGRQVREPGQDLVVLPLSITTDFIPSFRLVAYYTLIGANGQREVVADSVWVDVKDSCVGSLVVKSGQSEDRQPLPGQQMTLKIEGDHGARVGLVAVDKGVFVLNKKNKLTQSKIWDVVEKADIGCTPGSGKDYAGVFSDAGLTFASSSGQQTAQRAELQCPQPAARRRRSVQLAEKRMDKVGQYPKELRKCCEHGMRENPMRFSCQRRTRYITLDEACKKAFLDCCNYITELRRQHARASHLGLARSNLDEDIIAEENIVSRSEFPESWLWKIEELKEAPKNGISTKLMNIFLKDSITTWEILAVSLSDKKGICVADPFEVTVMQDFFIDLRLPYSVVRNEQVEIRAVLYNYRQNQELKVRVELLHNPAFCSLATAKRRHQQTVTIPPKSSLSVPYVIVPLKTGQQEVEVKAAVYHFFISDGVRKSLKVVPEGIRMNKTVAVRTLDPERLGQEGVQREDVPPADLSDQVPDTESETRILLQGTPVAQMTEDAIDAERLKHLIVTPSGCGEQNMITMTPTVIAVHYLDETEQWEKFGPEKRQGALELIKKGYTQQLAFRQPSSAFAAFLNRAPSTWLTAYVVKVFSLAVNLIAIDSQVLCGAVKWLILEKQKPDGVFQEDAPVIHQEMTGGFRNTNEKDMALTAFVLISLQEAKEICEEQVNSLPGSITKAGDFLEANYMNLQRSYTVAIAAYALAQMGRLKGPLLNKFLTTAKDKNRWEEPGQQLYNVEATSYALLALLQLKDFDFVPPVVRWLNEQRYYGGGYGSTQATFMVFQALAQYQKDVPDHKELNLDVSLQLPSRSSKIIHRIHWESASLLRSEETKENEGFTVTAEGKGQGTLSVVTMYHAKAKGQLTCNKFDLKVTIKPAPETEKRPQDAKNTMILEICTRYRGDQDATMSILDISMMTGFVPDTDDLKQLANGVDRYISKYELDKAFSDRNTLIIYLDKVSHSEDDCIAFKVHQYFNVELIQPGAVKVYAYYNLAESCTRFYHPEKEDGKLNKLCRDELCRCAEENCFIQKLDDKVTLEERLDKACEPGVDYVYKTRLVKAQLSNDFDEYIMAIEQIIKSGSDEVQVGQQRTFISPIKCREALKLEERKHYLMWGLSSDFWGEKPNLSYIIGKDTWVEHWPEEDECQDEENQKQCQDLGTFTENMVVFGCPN
T4 sequence (P01024 1002-1303 limits assumed): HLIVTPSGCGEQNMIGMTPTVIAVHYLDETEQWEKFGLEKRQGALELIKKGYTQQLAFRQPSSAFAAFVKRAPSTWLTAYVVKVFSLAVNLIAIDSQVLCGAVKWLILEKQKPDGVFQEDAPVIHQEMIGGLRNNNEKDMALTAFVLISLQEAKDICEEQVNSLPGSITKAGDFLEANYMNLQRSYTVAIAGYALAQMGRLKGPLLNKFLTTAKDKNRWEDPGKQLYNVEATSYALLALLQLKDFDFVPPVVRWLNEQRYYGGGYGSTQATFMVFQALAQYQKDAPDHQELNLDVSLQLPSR
T5 sequence (P00751 260-764 limits assumed): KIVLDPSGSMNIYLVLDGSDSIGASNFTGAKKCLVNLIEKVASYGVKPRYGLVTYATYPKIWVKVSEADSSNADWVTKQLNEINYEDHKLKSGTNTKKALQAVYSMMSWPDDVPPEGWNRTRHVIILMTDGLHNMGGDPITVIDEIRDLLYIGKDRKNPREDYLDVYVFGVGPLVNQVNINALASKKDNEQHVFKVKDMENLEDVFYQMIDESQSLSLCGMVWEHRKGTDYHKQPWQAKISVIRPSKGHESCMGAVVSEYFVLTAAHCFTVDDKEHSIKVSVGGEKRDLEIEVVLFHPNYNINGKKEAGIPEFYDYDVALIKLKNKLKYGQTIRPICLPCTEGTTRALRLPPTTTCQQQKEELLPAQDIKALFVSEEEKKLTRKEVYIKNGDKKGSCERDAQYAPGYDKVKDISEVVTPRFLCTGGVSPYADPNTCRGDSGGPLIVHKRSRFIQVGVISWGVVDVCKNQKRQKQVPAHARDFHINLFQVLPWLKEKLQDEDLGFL
T1 sequence (P01024 23-667, chain 1 of 2): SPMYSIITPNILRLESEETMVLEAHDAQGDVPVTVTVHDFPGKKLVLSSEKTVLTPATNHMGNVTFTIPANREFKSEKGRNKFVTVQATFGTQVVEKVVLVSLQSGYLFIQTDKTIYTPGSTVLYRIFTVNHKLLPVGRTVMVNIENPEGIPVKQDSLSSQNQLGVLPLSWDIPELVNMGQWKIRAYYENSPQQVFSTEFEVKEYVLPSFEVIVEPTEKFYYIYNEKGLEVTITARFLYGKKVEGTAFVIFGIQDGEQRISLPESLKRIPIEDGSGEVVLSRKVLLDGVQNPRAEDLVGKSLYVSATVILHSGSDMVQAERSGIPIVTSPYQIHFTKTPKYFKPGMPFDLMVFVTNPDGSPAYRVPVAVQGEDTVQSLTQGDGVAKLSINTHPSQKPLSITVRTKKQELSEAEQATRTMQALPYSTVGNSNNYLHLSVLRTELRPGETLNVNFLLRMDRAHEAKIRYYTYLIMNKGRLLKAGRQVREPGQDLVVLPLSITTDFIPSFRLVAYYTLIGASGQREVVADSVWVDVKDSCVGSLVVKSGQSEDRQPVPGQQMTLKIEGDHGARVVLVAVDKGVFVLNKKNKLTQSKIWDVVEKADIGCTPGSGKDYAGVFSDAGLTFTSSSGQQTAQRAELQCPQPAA
T1 sequence (P01024 672-1663, chain 2 of 2): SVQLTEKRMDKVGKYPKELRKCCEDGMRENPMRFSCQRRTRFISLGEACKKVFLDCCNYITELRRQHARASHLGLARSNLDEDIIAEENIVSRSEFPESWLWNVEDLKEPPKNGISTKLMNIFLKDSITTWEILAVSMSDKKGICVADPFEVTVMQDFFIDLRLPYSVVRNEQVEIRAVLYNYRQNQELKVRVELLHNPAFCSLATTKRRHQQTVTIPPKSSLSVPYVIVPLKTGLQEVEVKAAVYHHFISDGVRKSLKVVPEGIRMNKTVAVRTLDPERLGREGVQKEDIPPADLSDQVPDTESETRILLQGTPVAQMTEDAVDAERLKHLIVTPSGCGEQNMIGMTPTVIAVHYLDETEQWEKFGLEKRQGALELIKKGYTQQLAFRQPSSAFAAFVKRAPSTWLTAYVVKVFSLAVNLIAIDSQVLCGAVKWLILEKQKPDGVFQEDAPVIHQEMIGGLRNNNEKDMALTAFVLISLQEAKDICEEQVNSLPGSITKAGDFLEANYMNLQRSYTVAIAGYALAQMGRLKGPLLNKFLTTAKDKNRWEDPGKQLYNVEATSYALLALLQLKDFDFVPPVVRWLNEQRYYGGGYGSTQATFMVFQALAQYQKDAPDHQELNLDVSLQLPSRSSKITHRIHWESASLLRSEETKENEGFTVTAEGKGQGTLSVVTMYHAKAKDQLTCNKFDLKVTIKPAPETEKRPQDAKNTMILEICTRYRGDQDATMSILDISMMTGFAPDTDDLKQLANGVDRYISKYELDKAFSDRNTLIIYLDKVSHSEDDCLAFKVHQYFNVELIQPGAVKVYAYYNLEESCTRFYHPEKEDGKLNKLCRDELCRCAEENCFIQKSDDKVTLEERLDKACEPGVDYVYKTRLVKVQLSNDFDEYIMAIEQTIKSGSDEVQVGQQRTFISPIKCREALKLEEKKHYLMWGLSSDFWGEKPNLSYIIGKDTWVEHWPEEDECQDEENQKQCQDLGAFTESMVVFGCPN

Kd [3] [nM] | Kd [4] [nM] | Kd [6] [nM] | binding relative to negative control mIgG2 [7] | binding relative to negative control mIgG2 (C3a [8]) | binding relative to negative control mIgG2 (C3d [9]) | binding relative to negative control mIgG2 (Factor Bb [10]) | Binder | Hemolytic Assay IC50, Human AP [1] [nM] | Hemolytic Assay IC50, Human CP [1] [nM] | Hemolytic Assay IC50, Cyno AP [2] [nM] | AP human C3 IC50 (hemolysis) [14] [nM] | CP human C3 IC50 (hemolysis) [14] [nM] | other results
0.19 | 0.16 | ~0.1 | 0.53 | 0.02 | 0 | 0.01 | antibody 38G10 (antibody, V domains shown, Mouse hybridoma antibody; Parent of Hz38G10; also called parental 38G10 antibody) VH: EVQLQQSGPELVKPGDSVKMSCKASGYTFTDFYMDWVKQSHGKSLEWIGYIYPHNGGTTYNQNFTGKATLTVDKSSNTAYMELHSLTSEDSAVYYCARRGGFDFDYWGQGTTLTVSS VL: NIVMTQSPKSMSLSVGERVTLRCKASENVDTYVSWYQQKPEQSPKLLIYGASNRYTGVPDRFTGSGSATEFTLTISSVQAEDLVGYHCGQSHSYPLTFGAGTKLELK | 1.9 | 1.7 | 3.5 | – | – | Kd [5]: ~0.1 nM; binding result (C3a [11]): no binding; binding result (C3d [12]): no binding; binding result (Factor Bb [13]): no binding
0.13 | 0.13 | – | – | – | – | – | antibody 15C12 (antibody, V domains shown, Mouse hybridoma antibody) VH: EIQLQQSGAELEKPGASVKISCKASGYSFTGYNMHWVKQSHGKSLEWIGNINPYYGTTNSNQKFEDKATLTVDKSSSTAYMQLNSLTSEDSAVYYCARGIYYYGTGYPYFDFWGQGTTLTVSS VL: DIQMTQTTSSLSASLGDRVTISCRASQDINNYLNWYLQKPDGTVKLLIYYTSRLHSGVPSRFSGSGSGTDYSLTISNLEQEDLATYFCQQGITLPWTFGGGTKLEIK | 3.7 | 3.8 | 8.8 | – | – | –
– | – | – | – | – | – | – | Hz38G10 dsscFv (scFv, also called Hz38G10 VL-linker-VH dsscFv) scFv: MDIQMTQSPSSLSASVGDRVTITCKASENVDTYVSWYQQKPGKAPKLLIYGASNRYTGVPSRFSGSGSGTDFTFTISSLQPEDIATYHCGQSHSYPLTFGCGTKLEIKGGGGSGGGGSGGGGSQVQLVQSGAEVKKPGASVKVSCKASGYTFTDFYMDWVRQAPGQCLEWMGYIYPHNGGTTYNQQFTGRVTITVDKSASTAYMELSSLRSEDTAVYYCARRGGFDFDYWGQGTLVTVSS | – | – | – | 19.5 | 15.3 | Kd [15]: 0.035 nM
– | – | 1.8 | – | – | – | – | antibody Hz38G10 (antibody, human IgG1, kappa, V domains shown, also called humanized 38G10; Hz38G10 intact antibody) VH: QVQLVQSGAEVKKPGASVKVSCKASGYTFTDFYMDWVRQAPGQRLEWMGYIYPHNGGTTYNQQFTGRVTITVDKSASTAYMELSSLRSEDTAVYYCARRGGFDFDYWGQGTLVTVSS VL: DIQMTQSPSSLSASVGDRVTITCKASENVDTYVSWYQQKPGKAPKLLIYGASNRYTGVPSRFSGSGSGTDFTFTISSLQPEDIATYHCGQSHSYPLTFGQGTKLEIKR | – | – | – | 5.9 | 4 | Alternative Pathway IC50 (hemolysis), Human C3 [16]: 3.9 nM; Classical Pathway IC50 (hemolysis), Human C3 [16]: 5.2 nM; Alternative Pathway IC50 (hemolysis), Cyno C3 [17]: 4.8 nM; Classical Pathway IC50 (hemolysis), Cyno C3 [17]: 0.7 nM; Kd [18]: 0.3 nM; Kd [19]: 0.28 nM; Kd [20]: < 0.1 nM; fold more effective than COMP or COMP-PEG in inhibiting the alternative pathway [21]: ~10 fold; Kd [22]: 0.027 nM; Alternative Pathway IC50 (hemolysis; run with COMP) [23]: 2.5 nM; Alternative Pathway IC50 (hemolysis; run with COMP-PEG) [23]: 4 nM; Classical Pathway IC50 (hemolysis; run with COMP) [23]: 2 nM; Classical Pathway IC50 (hemolysis; run with COMP-PEG) [23]: 4.1 nM
1.9 | 1.4 | – | 0.47 | -0.01 | 0.01 | -0.01 | antibody 3D8 (antibody, V domains shown, Mouse hybridoma antibody raised against human C3) VH: EIQLQQSGAELVKPGASVKISCKASGYSFTGYNMNWVKQSHGKSLEWIGNINPYYGSTNYNQKFKGKATLTVDKSSTTAYMQLDSLTSEDSAVYYCARGYYGGNYPFAYWGQGTLVTVSA VL: DIQMTQSPASLSASVGETVTITCRASENIYSYLAWYQQKQGKSPQLLVYNAKTLAEGVPSRFSGSGSGTQFSLKINSLQPEDFGSYYCQHYYGTPYTFGGGSKVEIK | 4.2 | 3.6 | 5.5 | – | – | binding relative to negative control mIgG2 (C3b): 0.38
